Measurements from patent publication US20110207796.

Columns and labels:
[1] = tested on: human alpha-synuclein (wild-type, recombinant)
[2] = tested on: alpha-synuclein E46K familial mutant
[3] = tested on: alpha-synuclein A30P familial mutant
[4] = tested on: alpha-synuclein A53T familial mutant
[5] = biological target: beta synuclein (UniProt Q16143)
Sequence of beta synuclein (Q16143 whole entry): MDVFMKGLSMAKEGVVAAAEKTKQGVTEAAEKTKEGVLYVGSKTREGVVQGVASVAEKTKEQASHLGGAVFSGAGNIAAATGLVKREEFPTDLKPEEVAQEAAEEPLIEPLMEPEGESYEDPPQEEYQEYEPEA

Sequence of Polo like kinase 2 (PLK2) (chain): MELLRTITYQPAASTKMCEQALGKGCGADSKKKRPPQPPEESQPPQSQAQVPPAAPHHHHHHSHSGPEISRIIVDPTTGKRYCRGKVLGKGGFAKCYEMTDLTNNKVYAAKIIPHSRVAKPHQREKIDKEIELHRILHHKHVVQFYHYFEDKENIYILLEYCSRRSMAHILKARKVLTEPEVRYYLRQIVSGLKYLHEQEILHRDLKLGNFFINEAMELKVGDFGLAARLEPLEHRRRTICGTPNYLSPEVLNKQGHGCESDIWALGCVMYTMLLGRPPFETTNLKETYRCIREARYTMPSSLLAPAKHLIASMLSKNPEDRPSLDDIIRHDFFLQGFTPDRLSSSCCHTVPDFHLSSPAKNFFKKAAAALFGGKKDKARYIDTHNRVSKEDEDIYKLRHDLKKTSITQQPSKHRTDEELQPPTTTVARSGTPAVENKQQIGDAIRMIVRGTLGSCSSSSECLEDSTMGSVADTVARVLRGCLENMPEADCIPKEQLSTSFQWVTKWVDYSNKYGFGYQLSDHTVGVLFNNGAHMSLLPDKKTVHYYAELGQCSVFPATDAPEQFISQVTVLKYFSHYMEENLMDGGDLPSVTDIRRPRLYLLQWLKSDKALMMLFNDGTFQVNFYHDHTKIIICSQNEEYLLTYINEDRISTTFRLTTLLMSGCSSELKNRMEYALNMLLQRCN

Substance	S87 phosphorylation, immunoblot (pAb ELADW-110), kinase:rAS 1:200 molar [1]	S129 phosphorylation in vitro, kinases normalized by activity units [1]	S129 phosphorylation, immunoblot (mAb 11A5), kinase:rAS 1:200 molar [1]	S129 phosphorylation, immunoblot (mAb 11A5), rank of signal [1]	phospho ser-129 in vitro, kinases normalized for molarity [1]	in vitro phosphorylation, autoradiography [2]	Fold Change in Percent Synuclein Phosphorylation (ELISA, HEK-293 overexpression) [1]	Proportion of total synuclein that is phoshorylated at ser-129 (ELISA, HEK-293 overexpression) [1]	in vitro biochemical assay, phosphorylation of synuclein [1]	in vitro kinase reaction, phosphorylation of alpha-synuclein at serine 129 [1]	in vitro phosphorylation, autoradiography [1]	phosphorylation of alpha-synuclein at S129 on co-expression in bacteria, mass spectrometry [1]	in vitro phosphorylation, autoradiography [3]	in vitro phosphorylation, autoradiography [4]	in vitro phosphorylation, autoradiography [5]
casein kinase I (CKI)	A signal was detected only with CKI phosphorylation	CKI gave a modest signal	Prominent signals came from GRK6, CKI, CKII and PLK2	CKI>GRK6>PLK2>GRK4>GRK5>GRK2	roughly equivalent levels of phospho ser-129 between CKI, GRK6 and PLK2										
casein kinase 2 (CKII)		CKII was not detectable	Prominent signals came from GRK6, CKI, CKII and PLK2												
Polo like kinase 2 (PLK2)			Prominent signals came from GRK6, CKI, CKII and PLK2	CKI>GRK6>PLK2>GRK4>GRK5>GRK2	roughly equivalent levels of phospho ser-129 between CKI, GRK6 and PLK2	the mutant alpha-synucleins were phosphorylated more at a given concentration (especially at lower concentrations) than WT	21.2 fold	42.3%	PLK2 and PLK3 having extremely robust phosphorylation of synuclein	capable of phosphorylating alpha-synuclein specifically at serine 129 and did not phosphorylate serine 87 in vitro	PLK2 was found to be more active against wild-type alpha synuclein than beta synuclein	more than 95% phosphorylated	the mutant alpha-synucleins were phosphorylated more at a given concentration (especially at lower concentrations) than WT	the mutant alpha-synucleins were phosphorylated more at a given concentration (especially at lower concentrations) than WT	minimally against beta synuclein
